T1: MBP-IDD4-DD (phospho-mimic, truncated) (Arabidopsis thaliana, UniProt Q8GYC1 20-219, S73D;T130D)
T1 sequence: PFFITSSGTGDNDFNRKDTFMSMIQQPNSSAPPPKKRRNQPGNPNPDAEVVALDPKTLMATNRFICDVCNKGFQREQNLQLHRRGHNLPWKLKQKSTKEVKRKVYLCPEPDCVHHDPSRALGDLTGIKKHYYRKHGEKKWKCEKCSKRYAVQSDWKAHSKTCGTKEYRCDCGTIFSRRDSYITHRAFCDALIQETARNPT

B1: SAGT1 promoter ID1 probe (395s/395as) (dsDNA)
DNA 1: ACATGGTAGACAAAATAATGAAGCCAAAATTAATA
DNA 2: TATTAATTTTGGCTTCATTATTTTGTCTACCATGT
B2: SAGT1 promoter ID1 competitor, unlabeled (spe) (dsDNA)
DNA 1: B1 DNA 1
DNA 2: B1 DNA 2

Tests used:
[1] = target: T1, MBP-IDD4-DD (phospho-mimic, truncated); assay: EMSA; LightShift Chemiluminescent EMSA kit instructions; 20 fmol biotinylated DNA, 1 ug protein; buffer, salt, pH and temperature not stated; conditions: protein: recombinant; tags: MBP; label: 3' biotin; blunt
[2] = target: T1, MBP-IDD4-DD (phospho-mimic, truncated); assay: competition; unlabeled competitor up to 0.5 uM (100x excess) against N1; LightShift Chemiluminescent EMSA kit instructions; 20 fmol biotinylated DNA, 1 ug protein; buffer, salt, pH and temperature not stated; conditions: protein: recombinant; tags: MBP; blunt

Binder	binding result [1]	binding result [2]
B1	binds	–
B2	–	binds
